Results taken from patent US20150197568A1.
Changes are numbered by the printed parent chain. Values belong to the binder of their own block, whether it stands above or below them.

Target: Mature human IL-6 (human) (UniProt P05231)
Assay: cell-based or functional assay

Sequence of Mature human IL-6 (human) (P05231 30-212): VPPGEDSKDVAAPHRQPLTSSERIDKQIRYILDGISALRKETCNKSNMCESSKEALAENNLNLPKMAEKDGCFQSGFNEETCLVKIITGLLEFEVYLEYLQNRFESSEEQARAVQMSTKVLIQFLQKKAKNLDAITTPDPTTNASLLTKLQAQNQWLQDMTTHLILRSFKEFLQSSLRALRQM

IC50, TF-1 cell proliferation assay: 0.419 nM
B1: Antibody 8 scFv (scFv, part only; not given: scFv linker, part only)
scFv, part: EVQLVQSGGGLIQPGGSLRLSCAASGFTISSNYMIWVRQAPGKGLEWVSDLYYYAGDTYYADSVKGRFTMSRDISKNTVYLQMNSLRAEDTGVYYCARWADDHPRYIDHWGRGTLVTVSSDIVMTQSPSTLSASVGDRVTITCRASQGISSWLAWYQQKPGRAPKVLIYKASTLESGVPSRFSGSGSGTDFTLTISSLQPEDFATYYCQQSWLGGSFGQGTKLEIKR

IC50, TF-1 cell proliferation assay: 0.042 nM
B2: Antibody 21 scFv (scFv, part only; not given: scFv linker, part only)
scFv, part: B1 scFv, part with R105S, Y106H, H109V

IC50, IL-6 induced TF-1 cell proliferation assay: 0.101 nM
IC50, TF-1 cell proliferation assay: 0.074 nM
IC50, endogenous IL-6 induced synovial fibroblast VEGF release assay: 1.31 nM
B3: CNTO-328 (antibody, INN chains, looked up, V domains shown)
VH: EVQLVESGGKLLKPGGSLKLSCAASGFTFSSFAMSWFRQSPEKRLEWVAEISSGGSYTYYPDTVTGRFTISRDNAKNTLYLEMSSLRSEDTAMYYCARGLWGYYALDYWGQGTSVTVSS
VL: QIVLIQSPAIMSASPGEKVTMTCSASSSVSYMYWYQQKPGSSPRLLIYDTSNLASGVPVRFSGSGSGTSYSLTISRMEAEDAATYYCQQWSGYPYTFGGGTKLEIK

IC50, TF-1 cell proliferation assay: 0.448 nM
B4: Antibody 14 scFv (scFv, part only; not given: scFv linker, part only)
scFv, part: EVQLVQSGGGLIQPGGSLRLSCAASGFTISSNYMIWVRQAPGKGLEWVSDLYYYAGDTYYADSVKGRFTMSRDISKNTVYLQMNSLRAEDTGVYYCARWADDHNYPHIDVWGRGTLVTVSSDIVMTQSPSTLSASVGDRVTITCRASQGISSWLAWYQQKPGRAPKVLIYKASTLESGVPSRFSGSGSGTDFTLTISSLQPEDFATYYCAAHYAAPWTFGQGTKLEIKR

IC50, TF-1 cell proliferation assay: 0.041 nM
B5: Antibody 22 scFv (scFv, part only; not given: scFv linker, part only)
scFv, part: B4 scFv, part with Y105N, P106T, H107Y
